Molecular target: T1, RNAP α subunit (αI) (T. thermophilus, UniProt Q5SHR6 1-315)
T1 sequence (looked up): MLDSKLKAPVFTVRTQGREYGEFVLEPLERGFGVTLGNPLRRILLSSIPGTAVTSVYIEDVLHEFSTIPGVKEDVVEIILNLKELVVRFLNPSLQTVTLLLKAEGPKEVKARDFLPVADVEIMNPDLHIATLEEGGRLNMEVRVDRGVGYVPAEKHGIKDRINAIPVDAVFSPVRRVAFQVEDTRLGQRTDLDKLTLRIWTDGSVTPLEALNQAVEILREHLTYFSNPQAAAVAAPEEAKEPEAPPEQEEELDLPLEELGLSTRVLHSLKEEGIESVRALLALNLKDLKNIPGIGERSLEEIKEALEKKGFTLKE
Test: cryo-EM structure

binding result: binds
B1: ribosomal protein S10 (NusE) (natural protein, T. thermophilus, UniProt Q5SHN7 1-105, looked up)
chain: MPKIRIKLRGFDHKTLDASAQKIVEAARRSGAQVSGPIPLPTRVRRFTVIRGPFKHKDSREHFELRTHNRLVDIINPNRKTIEQLMTLDLPTGVEIEIKTVGGGR

Reference: doi:10.1101/2024.03.19.585385 (bioRxiv, 2024)
